In US7939490:

Molecular target: Fn14-Fc fusion protein (murine Fn14 extracellular domain fused to the hinge and Fc of mouse IgG1, with myc and His tags) (murine)
Experiment: ELISA, plate coated with Fn14-Fc, serial dilutions of FLAG-tagged TWEAK

Sequence of Fn14-Fc fusion protein (murine Fn14 extracellular domain fused to the hinge and Fc of mouse IgG1, with myc and His tags) (murine) (chain, as listed by the source): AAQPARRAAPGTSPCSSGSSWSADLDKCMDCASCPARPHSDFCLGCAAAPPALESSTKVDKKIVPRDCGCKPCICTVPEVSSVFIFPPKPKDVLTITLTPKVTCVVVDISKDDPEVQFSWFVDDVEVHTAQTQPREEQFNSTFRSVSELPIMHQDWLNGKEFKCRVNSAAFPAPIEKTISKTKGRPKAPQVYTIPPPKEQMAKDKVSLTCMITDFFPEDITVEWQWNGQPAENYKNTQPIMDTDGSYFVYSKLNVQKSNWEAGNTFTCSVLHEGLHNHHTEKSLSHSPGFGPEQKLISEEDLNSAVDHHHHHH

Kd: 1.1 nM
Substance: FLAG epitope-tagged TWEAK (ligand)
